biological target: Mac-1 (CD11b/CD18 integrin) on polymorphonuclear leukocytes (PMNs) of healthy human donors (human, UniProt P11215 17-1152; P05107 23-769); test: flow cytometry, 30 µg/mL antibody on untreated versus PMA-treated human WBCs, % CD11b+ cells of live PMNs
Procedure: FIG. 3 is a chart showing the results of a flow cytometry analysis of activated polymorphonuclear leukocytes (“PMNs”) stained using 30 humanized anti-CD11b constructs prepared according to the present disclosure. The percentages of CD11b+ cells in live PMN were calculated by a gating based on a control, which is the cells stained with human IgG4 isotype, and are presented as means S.E.M. from four independent experiments. The white bars are CD11b+ cells in untreated white blood cells (WBCs), while the black bars are CD11b+ cells in PMA-treated WBCs.
The baseline CBRM1/5 antibody can distinguish between non-activated (resting) and activated form of Mac-1. In order to validate that humanized variants retained this characteristic, WBCs were isolated from 4 healthy human donors and activated in the absence or presence of phorbol 12-myristate-13-acetate (PMA). The cells were then stained with 30 μg/mL of each of the 30 humanized variants along with control antibody (human IgG4 isotype) and analyzed using flow cytometry. The percentages of CD11b+ cells in live PMNs were calculated by a gating based on a control, which is the cells stained with human IgG4 isotype, and are presented as means S.E.M. from four independent experiments. Variants containing VL5 lost a binding to Mac-1 in polymorphonuclear leukocytes (PMNs) regardless of the pairings with any VH variant (FIGS. 3-4). […] However, VH1/VL6 and all variants with VH2 preserved the characteristic of CBRM1/5 that can distinguish between non-activated (resting) and activated form of Mac-1, while the variants with VH4 or VH5 were likely to lose the specificity of the parental antibody, CBRM1/5 (FIGS. 3-4).

| Binder | binding result |
| --- | --- |
| VH2/VL6 humanized anti-CD11b antibody (antibody, human IgG4 S228P, kappa, V domains shown, Lead candidate; IgG4 with S241P and L248E; also called VH2 with VL6) VH: QVQLVQSGAEVKKPGSSVKVSCKASGYAFINYLIEWVKQAPGQGLEWIGVINPGSGGTNYNEKFKGRATLTADKSTSTAYMELSSLRSEDTAVYFCARGDDYDDYTMDYWGQGTLVTVSS VL: EIVLTQSPATLSLSPGERATLSCRASQSISNNLHWYQQKPGQAPRLLIKYASQSESGIPSRFSGSGSGTDFTLTISSLEPEDFGMYFCQQSNSWPLTFGQGTKLEIKR | binds |
| VH4/VL2 humanized anti-CD11b antibody (antibody, V domains shown, Member of the group 'the variants with VH4 or VH5'; One of the 30 humanized variants) VH: QVQLVQSGAEVKKPGSSVKVSCKASGYAFINYLIEWVKQAPGQGLEWIGVINPGSGGTNYNEKFKGRVTITADKSTSTAYMELSSLRSEDTAVYYCARGDDYDDYTMDYWGQGTLVTVSS VL: DIVLTQSPATLSLSPGERATLSCRASQSISNNLHWYQQKPGQAPRLLIKYASQSMSGIPSRFSGSGSGTDFTLTISSLEPEDFGMYFCQQSNSWPLTFGQGTKLEIK | binds |
| VH2/VL2 humanized anti-CD11b antibody (antibody, human IgG4 S228P, kappa, Lead candidate; IgG4 with S241P and L248E; also called VH2 with VL2) heavy: not shown light: DIVLTQSPATLSLSPGERATLSCRASQSISNNLHWYQQKPGQAPRLLIKYASQSMSGIPSRFSGSGSGTDFTLTISSLEPEDFGMYFCQQSNSWPLTFGQGTKLEIKRTVAAPSVFIFPPSDEQLKSGTASVVCLLNNFYPREAKVQWKVDNALQSGNSQESVTEQDSKDSTYSLSSTLTLSKADYEKHKVYACEVTHQGLSSPVTKSFNRGEC | binds |

Now from value to binder:

| binding result | Binder |
| --- | --- |
| binds | VH2/VL3 humanized anti-CD11b antibody (antibody, human IgG4 S228P, kappa, Lead candidate; IgG4 with S241P and L248E; also called VH2 with VL3) heavy: not shown light: EIVLTQSPATLSLSPGERATLSCRASQSISNNLHWYQQKPGQAPRLLIKYASQSMSGIPSRFSGSGSGTDFTLTISSLEPEDFGMYFCQQSNSWPLTFGQGTKLEIKRTVAAPSVFIFPPSDEQLKSGTASVVCLLNNFYPREAKVQWKVDNALQSGNSQESVTEQDSKDSTYSLSSTLTLSKADYEKHKVYACEVTHQGLSSPVTKSFNRGEC |
| binds | VH1/VL6 humanized anti-CD11b antibody (antibody, human IgG4 S228P, kappa, V domains shown, Lead candidate; IgG4 with S241P and L248E; also called VH1 with VL6) VH: QVQLQQSGAELKRPGSSVKVSCKASGYAFINYLIEWVKQAPGQGLEWIGVINPGSGGTNYNEKFKGKATLTADKSSSTAYMELSSLRSDDSAVYFCARGDDYDDYTMDYWGQGTSVTVSS VL: EIVLTQSPATLSLSPGERATLSCRASQSISNNLHWYQQKPGQAPRLLIKYASQSESGIPSRFSGSGSGTDFTLTISSLEPEDFGMYFCQQSNSWPLTFGQGTKLEIKR |
| binds | VH4/VL3 humanized anti-CD11b antibody (antibody, V domains shown, Member of the group 'the variants with VH4 or VH5'; One of the 30 humanized variants) VH: QVQLVQSGAEVKKPGSSVKVSCKASGYAFINYLIEWVKQAPGQGLEWIGVINPGSGGTNYNEKFKGRVTITADKSTSTAYMELSSLRSEDTAVYYCARGDDYDDYTMDYWGQGTLVTVSS VL: EIVLTQSPATLSLSPGERATLSCRASQSISNNLHWYQQKPGQAPRLLIKYASQSMSGIPSRFSGSGSGTDFTLTISSLEPEDFGMYFCQQSNSWPLTFGQGTKLEIK |
| binds | VH4/VL6 humanized anti-CD11b antibody (antibody, human IgG4 S228P, kappa, V domains shown, Lead candidate; IgG4 with S241P and L248E; also called VH4 with VL6) VH: QVQLVQSGAEVKKPGSSVKVSCKASGYAFINYLIEWVKQAPGQGLEWIGVINPGSGGTNYNEKFKGRVTITADKSTSTAYMELSSLRSEDTAVYYCARGDDYDDYTMDYWGQGTLVTVSS VL: EIVLTQSPATLSLSPGERATLSCRASQSISNNLHWYQQKPGQAPRLLIKYASQSESGIPSRFSGSGSGTDFTLTISSLEPEDFGMYFCQQSNSWPLTFGQGTKLEIKR |

From patent publication US20260234267A1 (KAIGENE, published 2026)
